Data as given in patent US20220363763A1 (ABL BIO, published 2022).

How the values were obtained:
[1] = biological target: T1, human LAG3 (construct not stated) (human, UniProt P18627 23-450, limits assumed); test: BLI Octet Red 96, full kinetics, antigen 50-3.125 nM
T1 construct: also called human LAG3 protein; antigen
T1 sequence (looked up): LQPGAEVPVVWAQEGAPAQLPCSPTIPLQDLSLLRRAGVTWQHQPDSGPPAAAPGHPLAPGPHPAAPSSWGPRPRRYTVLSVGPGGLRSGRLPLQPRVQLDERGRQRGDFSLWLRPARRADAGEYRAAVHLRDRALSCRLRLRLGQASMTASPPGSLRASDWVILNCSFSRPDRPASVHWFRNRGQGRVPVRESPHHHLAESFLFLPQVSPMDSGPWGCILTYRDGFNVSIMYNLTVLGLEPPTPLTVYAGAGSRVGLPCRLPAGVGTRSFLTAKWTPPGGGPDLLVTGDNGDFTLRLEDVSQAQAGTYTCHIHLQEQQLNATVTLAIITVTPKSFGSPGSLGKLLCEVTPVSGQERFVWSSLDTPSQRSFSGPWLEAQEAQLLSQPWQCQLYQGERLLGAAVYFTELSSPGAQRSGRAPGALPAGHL
Protocol: The binding affinity was calculated by software in Octet® RED96 System.

human LAG3 on cells [2] = biological target: T2, human LAG3 on cells (human, UniProt P18627 23-525); test: flow cytometry (MFI) on Jurkat-LAG3 cells, upper panel; EC50 table has no unit, x axis Concentration (nM); Table 31 of the text prints the rounded 1.2
T2 construct: whole, on cells; also called Jurkat-LAG3
T2 sequence (looked up): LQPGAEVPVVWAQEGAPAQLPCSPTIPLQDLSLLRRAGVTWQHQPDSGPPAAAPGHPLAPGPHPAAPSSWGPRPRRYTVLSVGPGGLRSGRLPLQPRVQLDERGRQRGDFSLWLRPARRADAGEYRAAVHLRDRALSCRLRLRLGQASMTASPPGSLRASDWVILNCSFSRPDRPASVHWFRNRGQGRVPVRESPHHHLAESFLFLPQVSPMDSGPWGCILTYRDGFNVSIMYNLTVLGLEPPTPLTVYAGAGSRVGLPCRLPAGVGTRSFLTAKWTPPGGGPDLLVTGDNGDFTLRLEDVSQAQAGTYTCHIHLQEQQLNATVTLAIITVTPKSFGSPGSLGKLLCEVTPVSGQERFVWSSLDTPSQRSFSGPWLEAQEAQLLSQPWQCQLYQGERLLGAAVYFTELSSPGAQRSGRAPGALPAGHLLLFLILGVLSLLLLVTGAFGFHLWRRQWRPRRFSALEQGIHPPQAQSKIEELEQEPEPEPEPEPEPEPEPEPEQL
Protocol: (§1) To further confirm affinity matured anti-LAG-3 antibodies could bind to cell-derived human LAG3, both inducible hLAG3 expressed Jurkat cells and activated PBMCs were used to test the binding capability of B3807b and B3810. In brief, Jurkat cells were resuspended in FACS buffer. Anti-LAG3 antibodies and isotype control were 4-fold serially diluted in FACS buffer with a dose ranging from 20 nM to 30 pM. The serially diluted antibodies were added to the cell suspension and incubated for 30 minutes on ice. Then after removal of unbound antibodies, cells were stained with anti-human IgG conjugated with Alexa Fluor 633 (Thermo, A21091). Fluorescence measurement was acquired on FACSCelesta flow cytometer and analyzed in Flowjo to determine the mean fluorescence intensities (MFI). To test anti-LAG3 antibodies' ability of binding to native human LAG3, PBMCs from health donor were stimulated with anti-CD3 (BD, 555336) and anti-CD28 (BD, 555725) both at a concentration of 1 ug/ml. Following 3 days' stimulation, cells were harvested and incubated with anti-LAG3 antibodies for 30 mins on ice. The cells were stained with anti-human CD4 and anti-human IgG. Analysis of antibodies binding to CD4+ cells were carried out on FACSCelesta flow cytometry. […] FIG. 31 is a graph showing the binding curve of anti-LAG3 antibodies.

[3] = biological target: T1, human LAG3 (construct not stated); test: BLI Octet Red 96, affinity ranking
human LAG3 on cells [4] = biological target: T2, human LAG3 on cells; test: flow cytometry (MFI) on activated CD4 T cells, lower panel; EC50 table has no unit, x axis Concentration (nM); Table 31 of the text prints the rounded 0.77
Protocol: as §1

human LAG3 on cells [5] = biological target: T2, human LAG3 on cells; test: flow cytometry on hLAG3-expressing Jurkat cells
Protocol: as §1

[6] = biological target: T3, recombinant his-tag human LAG3-ECD protein (human, UniProt P18627 23-450); test: SPR Biacore T200, capture method as Example 2.7
T3 construct: extracellular domain; not shown: his tag
T3 sequence (looked up): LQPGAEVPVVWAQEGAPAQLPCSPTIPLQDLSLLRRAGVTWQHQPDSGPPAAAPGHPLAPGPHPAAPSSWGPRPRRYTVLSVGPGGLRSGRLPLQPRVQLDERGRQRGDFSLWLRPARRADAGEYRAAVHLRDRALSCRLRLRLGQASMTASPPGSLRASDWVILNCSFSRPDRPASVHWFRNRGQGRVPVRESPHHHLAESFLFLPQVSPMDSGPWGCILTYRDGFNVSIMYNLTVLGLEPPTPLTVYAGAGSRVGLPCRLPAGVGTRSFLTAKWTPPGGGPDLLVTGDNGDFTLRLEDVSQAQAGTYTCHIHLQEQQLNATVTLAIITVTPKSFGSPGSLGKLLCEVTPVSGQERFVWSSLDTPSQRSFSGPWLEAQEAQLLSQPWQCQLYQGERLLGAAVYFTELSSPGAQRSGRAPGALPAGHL

human LAG3 on cells [7] = biological target: T2, human LAG3 on cells; test: flow cytometry on activated CD4 T cells
Protocol: as §1

[8] = biological target: T4, recombinant human LAG-3-ECD-human IgG1 fusion protein (human, UniProt P18627 23-450, biotin-labeled in the MHC class II blocking assays); test: ELISA as Example 2.2, coated human LAG3 ECD-Fc
T4 construct: extracellular domain; also called LAG-3-huFc; LAG-3-ECD-huFc; not shown: human IgG1 Fc
T4 sequence (looked up): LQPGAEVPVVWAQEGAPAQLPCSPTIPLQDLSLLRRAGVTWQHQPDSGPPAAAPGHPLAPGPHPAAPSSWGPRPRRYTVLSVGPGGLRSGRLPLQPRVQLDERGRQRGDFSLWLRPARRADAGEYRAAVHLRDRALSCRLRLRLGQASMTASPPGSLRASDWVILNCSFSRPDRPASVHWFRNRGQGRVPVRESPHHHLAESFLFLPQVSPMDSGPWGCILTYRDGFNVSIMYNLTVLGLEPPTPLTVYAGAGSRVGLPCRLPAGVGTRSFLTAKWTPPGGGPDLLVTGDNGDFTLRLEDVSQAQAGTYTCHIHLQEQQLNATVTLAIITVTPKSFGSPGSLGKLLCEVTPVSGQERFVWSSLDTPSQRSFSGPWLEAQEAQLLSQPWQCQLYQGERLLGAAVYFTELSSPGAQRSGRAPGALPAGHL
Protocol: To evaluate the capability of the anti-LAG-3 antibodies to bind to human, rat, and mouse LAG3 the antibodies identified in Example 2.1 were evaluated for their binding property through ELISA. The human, rat and mouse LAG3 ECD-Fc protein were coated to ELISA plate at 1 μg/ml with 100 μl/well. Antibodies from Example 1 were serially diluted with ELISA diluent buffer. […] The resulting plates were washed and then labeled with anti-human IgG(Fab)-HRP antibody. The S31 can only bind to human LAG3. The S27 and T99 can bind to human LAG3 and rat/mouse LAG3 with lower potency. The S119 antibody can bind to human, rat and mouse LAG3 at high potency (FIGS. 22A-22D).

Kd [1]: 18.2 nM
koff [1]: 0.0019 s⁻¹
kon [1]: 104000 M⁻¹ s⁻¹
EC50 (human LAG3 on cells [2]): 1.23 nM
Kd [3]: 21.6 nM
koff [3]: 0.00234 s⁻¹
kon [3]: 108000 M⁻¹ s⁻¹
EC50 (human LAG3 on cells [4]): 0.767 nM
EC50 (human LAG3 on cells [5]): 1.2 nM
Kd [6]: 14 nM
koff [6]: 0.03 s⁻¹
kon [6]: 2.2e+06 M⁻¹ s⁻¹
EC50 (human LAG3 on cells [7]): 0.77 nM
EC50 [8]: 6.5 nM
B1: 147H-13 (antibody, V domains shown)
VH: EVQLVQSGAEVKKPGASVKVSCKASGYTFTNYWLGWIKQAPGQGLEWIGDIYPGGDYINYNEKFKGKATLTADTSISTAYMELSRLRSDDTAVYYCARPNLPGDYWGQGTTVTVSS
VL: DIVMTQSPLSLPVTPGEPASISCRSSKSLLHSNGITYLYWYLQKPGQSPQLLIYQVSNLASGVPDRFSGSGSGTDFTLKISRVEAEDVGVYYCAQNLELPWTFGGGTKVEIK
notes: Common light chain; human gamma 1 / kappa constant domains; also called 147H4-13
